According to US20180037631A1 (Bristol-Myers Squibb, published 2018):
Where a chain is given by its changes, count along the chain named.

B1: E49 (designed binder)
10Fn3 domain: MGVSDVPRDLEVVAATPTSLLISWHSGPREYQYYRITYGETGGNSPVQEFTVPGQVYTATISGLKPGVDYTITVYAVTDFFNPITHYYYYELTPISINYRTEIDKPSQ
B2: E50 (designed binder)
10Fn3 domain: MGVSDVPRDLEVVAATPTSLLISWTVGLSVYQYYRITYGETGGNSPVQEFTVPGMVSTATISGLKPSVDYTITVYAVTDYKPHADGPHTYHEYPISINYRTEIDKPSQ
B3: E58 (designed binder)
10Fn3 domain: MGVSDVPRDLEVVAATPTSLLISWSAVRWRYQYYRITYGETGGNSPVQEFTVPGGVRTATISGLKPGVDYTITVYAVTDFYNPRTHVYIYDQFPISINYRTEIDKPSQ
B4: E54 (designed binder)
10Fn3 domain: MGVSDVPRDLEVVAATPTSLLISWKASYTGYNYYRITYGETGGNSPVQEFTVPRDVMTATISGLKPGVDYTITVYAVTDFYNPDTHQYTYRRIPISINYRTEIDKPSQ
B5: E55 (designed binder)
10Fn3 domain: MGVSDVPRDLEVVAATPTSLLISWSVGQVFYQYYRITYGETGGNSPVQEFTVPYDVYTATISGLKPGVDYTITVYAVTDYYNPATHEYKYHQTPISINYRTEIDKPSQ
B6: E56 (designed binder)
10Fn3 domain: B5 10Fn3 domain with S25Y, V26S, Q28D, V29Y, F30H, Y54H, V56L, Y57E, E87Y, H91E
B7: E53 (designed binder)
10Fn3 domain: B5 10Fn3 domain with Q28G, V29M, F30I, Y54G, D55M, Y57T
B8: E52 (designed binder)
10Fn3 domain: MGVSDVPRDLEVVSATPTSLLISWQVPRPMYQYYRITYGETGGNSPVQEFTVPGGVRTATISGLKPGVDYTITVYAVTDYWFKEYREDPISINYRTEIDKPSQ
B9: E48 (designed binder)
10Fn3 domain: MGVSDVPRDLEVVAATPTSLLISWRSSATAYQYYRITYGETGGNSPVQEFTVPGRVYTATISGLKPGVDYTITVYAVTDFFNWATHEYIYHSTPISINYRTEIDKPSQ
B10: E46 (designed binder)
10Fn3 domain: MGVSDVPRDLEVVAATPTSLLISWQVGSVVYQYYRITYGETGGNSPVQEFTVPRDVLTATISGLKPGVDYTITVYAVTDYKPKPDGPHIYQAVPISINYRTEIDKPSQ
B11: E47 (designed binder)
10Fn3 domain: MGVSDVPRDLEVVAATPTSLLISWNPASKDYQYYRITYGETGGNSPVQEFTVPGQVPTATISGLKPGVDYTITVYAVTDFYNPATHEYKYDSTPISINYRTEIDKPSQ
B12: E51 (designed binder)
10Fn3 domain: B5 10Fn3 domain with S25G, V26G, G27H, Q28R, V29A, F30V, Y54G, D55A, A84D, T93Y
B13: E57 (designed binder)
10Fn3 domain: B5 10Fn3 domain with S25I, G27Q, Q28G, V29G, F30R, Y54G, D55M, Y57T, A84S
B14: E17 (designed binder)
10Fn3 domain: B2 10Fn3 domain with T25Q, G27P, L28R, S29P, V30M, S57H, S67G, Y80H, Y93S
B15: E13 (designed binder)
10Fn3 domain: B5 10Fn3 domain with S25Q, G27P, Q28R, V29P, F30M, Y54G, D55Q, Y80S
B16: E15 (designed binder)
10Fn3 domain: B5 10Fn3 domain with S25Q, G27P, Q28R, V29P, F30M, Y54H, V56L, Y57R, Y80S
B17: E14 (designed binder)
10Fn3 domain: B5 10Fn3 domain with S25Q, G27P, Q28R, V29P, F30M, Y57T, Y80S
B18: E12 (designed binder)
10Fn3 domain: B5 10Fn3 domain with S25Q, G27P, Q28R, V29P, F30M, Y54H, Y80S
B19: E16 (designed binder)
10Fn3 domain: MGVSDVPRDLEVVAATPTSLLISWQVPRPMYQYYRITYGETGGNSPVQEFTVPYDLVTATISGLKPGVDYTITVYAVTDHKPHADGPHTYHESPISINYRTEIDKPSQ
B20: E27 (designed binder)
10Fn3 domain: B5 10Fn3 domain with V26K, Q28S, V29K, F30S, D55H, H86Y, K89I, H91L, Q92T
B21: E29 (designed binder)
10Fn3 domain: MGVSDVPRDLEVVAATPTSLLISWQPGTTHYQYYRITYGETGGNSPVQEFTVPYDLMTATISGLKPGVDYTITVYAVTDYYNPNTYEYIYLTTPISINYRTEIDKPSQ
B22: E31 (designed binder)
10Fn3 domain: MGVSDVPRDLEVVAATPTSLLISWTYNDGSYQYYRITYGETGGNSPVQEFTVPYAVYTATISGLKPGVDYTITVYAVTDFYNPATYEYIYHTTPISINYRTEIDKPSQ
B23: E18 (designed binder)
10Fn3 domain: B19 10Fn3 domain with Q25F, P27T, R28H, P29V, M30A, Y54G, D55G, V57S, H80Y
B24: E20 (designed binder)
10Fn3 domain: MGVSDVPRDLEVVAATPTSLLISWMTSPSVYQYYRITYGETGGNSPVQEFTVPGPVQTATISGLKPGVDYTITVYAVTDYKEHQHAPHQYTAHPISINYRTEIDKPSQ
B25: E22 (designed binder)
10Fn3 domain: B5 10Fn3 domain with V26T, Q28R, V29T, F30T, Y54H, V56L, Y57D, Y80S
B26: E24 (designed binder)
10Fn3 domain: B11 10Fn3 domain with N25Q, P26V, A27P, S28R, K29P, D30M, F80S, D91H, S92Q
B27: E23 (designed binder)
10Fn3 domain: B8 10Fn3 domain with S14A, G54Y, G55D, R57I, Y80M, W81M, F82H, K83V, R86A, D88Y
B28: E26 (designed binder)
10Fn3 domain: MGVSDVPRDLEVVAATPTSLLISWWIGIPVYQYYRITYGETGGNSPVQEFTVPYDGKTATISGLKPGVDYTITVYAVTDMMHVEYAEYPISINYRTEIDKPSQ
B29: E30 (designed binder)
10Fn3 domain: MGVSDVPRDLEVVAATPTSLLISWAIGTIVYQYYRITYGETGGNSPVQEFTVPAGVYTATISGLKPGVDYTITVYAVTDYYDWATHEYNYHTAPISINYRTEIDKPSQ
B30: E25 (designed binder)
10Fn3 domain: MGVSDVPRDLEVVAATPTSLLISWGYQSGGYTYYRITYGETGGNSPVQEFTVPHDLRTATISGLKPGVDYTITVYAVTDYAYKEYQEHPISINYRTEIDKPSQ
B31: E19 (designed binder)
10Fn3 domain: MGVSDVPRDLEVVAATPTSLLISWETESNAYQYYRITYGETGGNSPVQEFTVPGQIYTATISGLKPGVDYTITVYAVTDYKPHADGPHTYHESPISINYRTEIDKPSQ
B32: E28 (designed binder)
10Fn3 domain: B11 10Fn3 domain with A27G, D30S, Q55G, P57R, A84D, K89L, D91N, S92Q, T93Y
B33: E86 (designed binder)
10Fn3 domain: MGVSDVPRDLEVVAATPTSLLISWDSGENNYQYYRITYGETGGNSPVQEFTVPGGVRTATISGLKPGVDYTITVYAVTDYYNPKTHEYNYLTIPISINYRTEIDKPSQ

target: T1, EGFR on the surface of human tumour cells (A431, H292) (human, UniProt P00533 25-1210); assay: cell-based or functional assay

Point of comparison: B1, “% inhibition of EGFR phosphorylation at 100 nM binder, cell-based assay” value (from here on “% inhibition of EGFR phosphorylation”) 83.5%. Against it:
- B2 — lower, 77.4%
- B3 — lower, 79.7%
- B4 — lower, 76.1%
- B5 — higher, 99.1%
- B6 — higher, 84.2%
- B7 — lower, 79.8%
- B8 — lower, 75.3%
- B9 — higher, 88.6%
- B10 — lower, 77%
- B11 — lower, 76.9%
- B12 — lower, 82.8%
- B13 — lower, 75.5%

target: T1, EGFR on the surface of human tumour …; assay: cell-based or functional assay; remark: another data set of the same source

Point of comparison: B15, “% inhibition of EGFR phosphorylation” value 86.7%. Against it:
- B14 — lower, 75.5%
- B16 — higher, 88.8%
- B17 — lower, 80.4%
- B18 — lower, 76.5%
- B19 — higher, 97.7%

target: T1, EGFR on the surface of human tumour …; assay: cell-based or functional assay; remark: another data set of the same source

Point of comparison: B20, “% inhibition of EGFR phosphorylation” value 94.6%. Against it:
- B21 — lower, 87.9%
- B22 — lower, 75.8%
- B23 — lower, 91.1%
- B24 — lower, 80.2%
- B25 — lower, 83.7%
- B26 — lower, 90.3%
- B27 — lower, 81.1%
- B28 — lower, 75.4%
- B29 — lower, 87.3%
- B30 — lower, 77.1%
- B31 — lower, 84.6%
- B32 — lower, 85.3%

target: T1, EGFR on the surface of human tumour …; assay: cell-based or functional assay; remark: another data set of the same source

For B33, the “% inhibition of EGFR phosphorylation” value was 84.7%.
